This test deals with SARS-CoV-2 S protein RBD (residues 319-541 of the S protein), soluble, with C-terminal Avitag and His tag (SARS-CoV-2, UniProt P0DTC2 319-541).

The text below walks through data of patent US20240043506A1 (GARVAN INSTITUTE OF MEDICAL RESEARCH, published 2024).

B1: O4C12 (antibody, V domains shown)
VH: EVQLLESGGGLVQPGGSLRLSCAASGFRISDEDMGWVRQAPGKGLEWVSYIDNAGASTYYADSVKGRFTISRDNSKNTLYLQMNSLRAEDTAVYYCAKQINQGEGFDYWGQGTLVTVSS
VL: DIQMTQSPSSLSASVGDRVTITCRASQSISSYLNWYQQKPGKAPKLLIYYASNLQSGVPSRFSGSGSGTDFTLTISSLQPEDFATYYCQQGLGMPITFGQGTKVEIK
As a reminder, the Kd is the equilibrium constant for the complex coming apart. Low readings indicate tighter binding, high ones weaker binding. B1 registered a Kd of 23 nM. This counts as double-digit nanomolar.

B2: O4G1 (antibody, V domains shown)
VH: EVQLLESGGGLVQPGGSLRLSCAASGFRFDYEDMGWVRQAPGKGLEWVSSIDSHGASTYYADSVKGRFTISRDNSKNTLYLQMNSLRAEDTAVYYCAKYSHSVSYGPFDYWGQGTLVTVSS
VL: DIQMTQSPSSLSASVGDRVTITCRASQYIYDDLNWYQQKPGKAPKLLIYSASSLQSGVPSRFSGSGSGTDFTLTISSLQPEDFATYYCQQTNTYPQTFGQGTKVEIK
Consider B2, for which the affinity, expressed as Kd, was 19 nM. This Kd and that of the molecule before are within 1.5-fold of each other.
